According to IntAct's records for PubMed 20562859:

Columns and labels:
kbtb7_human KBTBD7 = target: T1, kbtb7_human KBTBD7 (UniProt Q8WVZ9)
T1 sequence: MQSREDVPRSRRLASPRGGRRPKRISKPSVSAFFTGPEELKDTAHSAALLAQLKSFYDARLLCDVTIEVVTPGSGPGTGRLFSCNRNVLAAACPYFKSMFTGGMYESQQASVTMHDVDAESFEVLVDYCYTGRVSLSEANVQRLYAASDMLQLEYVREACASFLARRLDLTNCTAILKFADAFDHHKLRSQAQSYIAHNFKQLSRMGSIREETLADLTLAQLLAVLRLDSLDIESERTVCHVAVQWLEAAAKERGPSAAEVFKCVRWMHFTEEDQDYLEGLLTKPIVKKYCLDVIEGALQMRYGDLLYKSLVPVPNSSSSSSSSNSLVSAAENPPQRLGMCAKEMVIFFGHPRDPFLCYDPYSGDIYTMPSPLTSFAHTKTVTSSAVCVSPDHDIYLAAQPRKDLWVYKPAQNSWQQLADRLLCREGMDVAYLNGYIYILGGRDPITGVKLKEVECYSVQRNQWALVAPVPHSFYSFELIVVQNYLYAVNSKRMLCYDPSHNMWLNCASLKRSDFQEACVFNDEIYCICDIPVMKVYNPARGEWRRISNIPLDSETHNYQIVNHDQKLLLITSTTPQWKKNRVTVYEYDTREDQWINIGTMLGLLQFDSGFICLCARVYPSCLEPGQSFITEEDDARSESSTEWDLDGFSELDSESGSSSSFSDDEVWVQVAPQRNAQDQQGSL

fnip1_human FNIP1 = target: T2, fnip1_human FNIP1 (UniProt Q8TF40)
T2 sequence: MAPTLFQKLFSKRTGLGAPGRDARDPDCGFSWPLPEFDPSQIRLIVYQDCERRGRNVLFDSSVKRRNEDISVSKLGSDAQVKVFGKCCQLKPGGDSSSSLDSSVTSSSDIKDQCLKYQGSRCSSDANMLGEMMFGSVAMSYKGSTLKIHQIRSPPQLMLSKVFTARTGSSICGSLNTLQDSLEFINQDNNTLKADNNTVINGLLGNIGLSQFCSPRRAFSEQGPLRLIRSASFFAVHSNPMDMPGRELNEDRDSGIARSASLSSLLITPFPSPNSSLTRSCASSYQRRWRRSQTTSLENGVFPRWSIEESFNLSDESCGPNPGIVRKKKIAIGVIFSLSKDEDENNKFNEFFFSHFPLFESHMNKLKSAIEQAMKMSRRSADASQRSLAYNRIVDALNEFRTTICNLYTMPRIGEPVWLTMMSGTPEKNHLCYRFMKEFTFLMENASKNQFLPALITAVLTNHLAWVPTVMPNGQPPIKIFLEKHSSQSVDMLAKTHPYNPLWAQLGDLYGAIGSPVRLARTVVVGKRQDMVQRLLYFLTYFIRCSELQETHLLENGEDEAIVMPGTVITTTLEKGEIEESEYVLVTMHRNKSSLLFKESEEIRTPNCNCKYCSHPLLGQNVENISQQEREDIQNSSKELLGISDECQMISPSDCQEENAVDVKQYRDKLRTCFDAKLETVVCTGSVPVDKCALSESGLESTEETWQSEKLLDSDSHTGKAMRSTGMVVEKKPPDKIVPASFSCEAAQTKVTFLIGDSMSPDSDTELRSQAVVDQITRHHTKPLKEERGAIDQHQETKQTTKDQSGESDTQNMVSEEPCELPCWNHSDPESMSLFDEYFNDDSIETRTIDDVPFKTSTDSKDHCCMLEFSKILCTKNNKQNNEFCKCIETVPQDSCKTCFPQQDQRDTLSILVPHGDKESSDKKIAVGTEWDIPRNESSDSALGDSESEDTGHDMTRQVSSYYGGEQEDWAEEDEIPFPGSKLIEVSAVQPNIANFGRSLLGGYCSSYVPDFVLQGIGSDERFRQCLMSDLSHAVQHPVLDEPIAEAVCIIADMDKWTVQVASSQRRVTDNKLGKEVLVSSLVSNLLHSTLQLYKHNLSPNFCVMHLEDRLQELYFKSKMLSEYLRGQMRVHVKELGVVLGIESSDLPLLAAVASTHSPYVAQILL

atg5_human ATG5 = atg5_human ATG5 (UniProt Q9H1Y0)
uba5_human UBA5 = uba5_human UBA5 (UniProt Q9GZZ9)
ulk1_human ULK1 = target: T3, ulk1_human ULK1 (UniProt O75385)
T3 sequence: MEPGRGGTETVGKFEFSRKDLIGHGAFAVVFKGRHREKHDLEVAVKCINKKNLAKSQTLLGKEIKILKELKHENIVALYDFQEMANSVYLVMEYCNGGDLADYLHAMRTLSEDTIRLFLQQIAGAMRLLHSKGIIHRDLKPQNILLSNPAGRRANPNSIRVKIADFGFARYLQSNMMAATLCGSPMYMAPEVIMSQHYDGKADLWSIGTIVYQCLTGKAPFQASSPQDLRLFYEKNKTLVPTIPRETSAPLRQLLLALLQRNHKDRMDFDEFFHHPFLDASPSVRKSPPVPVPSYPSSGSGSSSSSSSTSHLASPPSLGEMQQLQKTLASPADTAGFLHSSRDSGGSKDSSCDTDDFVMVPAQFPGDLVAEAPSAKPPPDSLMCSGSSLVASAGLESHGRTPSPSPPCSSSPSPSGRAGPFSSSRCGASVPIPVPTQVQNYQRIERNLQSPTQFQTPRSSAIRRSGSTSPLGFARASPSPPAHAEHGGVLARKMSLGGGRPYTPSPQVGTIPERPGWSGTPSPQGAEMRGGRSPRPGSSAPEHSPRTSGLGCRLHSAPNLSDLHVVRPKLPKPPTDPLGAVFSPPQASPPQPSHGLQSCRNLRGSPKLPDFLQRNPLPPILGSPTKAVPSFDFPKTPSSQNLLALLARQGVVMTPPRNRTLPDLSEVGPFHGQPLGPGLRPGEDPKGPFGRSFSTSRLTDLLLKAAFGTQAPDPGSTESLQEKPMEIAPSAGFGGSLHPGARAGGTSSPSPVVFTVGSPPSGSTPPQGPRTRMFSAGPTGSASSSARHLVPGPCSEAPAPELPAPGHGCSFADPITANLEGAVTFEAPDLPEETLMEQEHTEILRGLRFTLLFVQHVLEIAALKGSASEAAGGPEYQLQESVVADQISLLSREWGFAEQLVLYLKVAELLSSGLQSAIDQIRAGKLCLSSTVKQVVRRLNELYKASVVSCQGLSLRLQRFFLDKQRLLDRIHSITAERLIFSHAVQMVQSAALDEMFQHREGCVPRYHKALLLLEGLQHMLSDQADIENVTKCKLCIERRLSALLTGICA

uba5_human UBA5, sequence (Q9GZZ9 whole entry): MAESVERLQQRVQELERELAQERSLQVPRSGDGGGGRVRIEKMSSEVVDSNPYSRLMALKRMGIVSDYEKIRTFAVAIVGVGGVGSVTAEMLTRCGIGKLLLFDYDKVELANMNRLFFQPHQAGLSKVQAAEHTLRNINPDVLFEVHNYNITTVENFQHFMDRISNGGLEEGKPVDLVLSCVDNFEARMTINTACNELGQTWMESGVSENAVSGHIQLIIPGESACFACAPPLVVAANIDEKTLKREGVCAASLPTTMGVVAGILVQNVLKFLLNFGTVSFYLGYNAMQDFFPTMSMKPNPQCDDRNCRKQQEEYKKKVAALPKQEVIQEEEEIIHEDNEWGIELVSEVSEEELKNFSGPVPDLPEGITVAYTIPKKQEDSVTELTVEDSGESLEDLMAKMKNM
atg5_human ATG5, sequence (Q9H1Y0 whole entry): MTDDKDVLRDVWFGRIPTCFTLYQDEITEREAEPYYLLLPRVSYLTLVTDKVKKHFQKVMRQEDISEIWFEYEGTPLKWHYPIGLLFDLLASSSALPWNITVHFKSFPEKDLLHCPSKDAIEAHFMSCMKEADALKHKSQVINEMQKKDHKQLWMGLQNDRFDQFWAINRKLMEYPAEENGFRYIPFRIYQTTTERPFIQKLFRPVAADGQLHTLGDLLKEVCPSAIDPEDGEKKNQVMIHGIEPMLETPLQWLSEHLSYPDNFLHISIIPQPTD

Substance	effect of a mutation on the interaction (kbtb7_human KBTBD7)	effect of a mutation on the interaction (fnip1_human FNIP1)	effect of a mutation on the interaction (atg5_human ATG5)	effect of a mutation on the interaction (uba5_human UBA5)	effect of a mutation on the interaction (ulk1_human ULK1)
Microtubule-associated protein 1 light chain 3 beta (Homo sapiens) (from UniProt Q9GZQ8) F52A;L53A	decreasing interaction	increasing interaction	increasing interaction	–	–
Microtubule-associated protein 1 light chain 3 beta (Homo sapiens) (from UniProt Q9GZQ8) R69A	disrupting interaction	–	–	disrupting interaction	decreasing interaction
